The assay has as its target p53 (human, wild type) (human (endogenous in HCT 116, MCF7, U2OS)), P04637. Briefly: co-IP; HCT 116 colon cancer cells, untreated or treated with RITA; co-immunoprecipitation of p53/MDM2 or p53/MDM4 as described previously (Issaeva et al., 2004). To be noted: remark: other sources report otherwise.

This note sets out measurements from publication PMC9198586.

p53 (human, wild type) (human (endogenous in HCT 116, MCF7, U2OS)), P04637, sequence (P04637 whole entry): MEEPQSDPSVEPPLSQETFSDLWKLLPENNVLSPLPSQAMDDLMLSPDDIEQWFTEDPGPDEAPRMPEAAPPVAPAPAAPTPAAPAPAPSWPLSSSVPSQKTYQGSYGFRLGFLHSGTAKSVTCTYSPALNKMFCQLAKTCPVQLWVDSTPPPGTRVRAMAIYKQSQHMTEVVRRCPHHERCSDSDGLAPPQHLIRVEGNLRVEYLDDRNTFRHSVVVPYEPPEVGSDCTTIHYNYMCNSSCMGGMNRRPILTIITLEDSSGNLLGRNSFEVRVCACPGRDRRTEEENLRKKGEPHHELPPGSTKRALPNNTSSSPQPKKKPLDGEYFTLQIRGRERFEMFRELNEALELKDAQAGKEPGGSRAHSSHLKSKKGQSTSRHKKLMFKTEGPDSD

B1: MDM4 (MDMX), human, O15151 1-490 (natural protein)
chain: MTSFSTSAQCSTSDSACRISPGQINQVRPKLPLLKILHAAGAQGEMFTVKEVMHYLGQYIMVKQLYDQQEQHMVYCGGDLLGELLGRQSFSVKDPSPLYDMLRKNLVTLATATTDAAQTLALAQDHSMDIPSQDQLKQSAEESSTSRKRTTEDDIPTLPTSEHKCIHSREDEDLIENLAQDETSRLDLGFEEWDVAGLPWWFLGNLRSNYTPRSNGSTDLQTNQDVGTAIVSDTTDDLWFLNESVSEQLGVGIKVEAADTEQTSEEVGKVSDKKVIEVGKNDDLEDSKSLSDDTDVEVTSEDEWQCTECKKFNSPSKRYCFRCWALRKDWYSDCSKLTHSLSTSDITAIPEKENEGNDVPDCRRTISAPVVRPKDAYIKKENSKLFDPCNSVEFLDLAHSSESQETISSMGEQLDNLSEQRTDTENMEDCQNLLKPCSLCEKRPRDGNIIHGRTGHLVTCFHCARRLKKAGASCPICKKEIQLVIKVFIA
For B1, the percent reduction of the amount of MDMX bound to p53 by RITA amounted to 43%.
